Reference: paper PMC8982573 (EMBO Reports, 2022)

Biological target: SARS-CoV-2 spike receptor-binding domain fused to Venus YFP (RBD-vYFP) (SARS-CoV-2, UniProt P0DTC2 330-526, chemically biotinylated using NHS-Biotin)
Test: grating-coupled interferometry (GCI)
Conditions: both partners purified

B1: Sybody Sb#15 (VHH)
VHH: QVQLVESGGGLVQAGGSLRLSCAASGFPVKNFEMEWYRKAPGKEREWVAAIQSGGVETYYADSVKGRFTISRDNAKNTVYLQMNSLKPEDTAVYYCFVYVGRSYIGQGTQVTVS
notes: also called Sb#y15; source: E. coli MC1061, periplasm, purified (Ni-NTA, SEC)
B1 was tested. Which Kd did it give?
The Kd was 14.4 nM.
